The assay has as its target Aedes aegypti membrane-bound alkaline phosphatase (Aa-mALP), 54 kDa His(6)-tagged (Aedes aegypti). Kind of assay: ELISA; sandwich ELISA; Aa-mALP (2.5 µg) coated on 96-well plates in 50 mM carbonate buffer pH 9.0; ligands at 100, 200, 300 and 400 nM, 37 °C, 2 h; detected with rabbit anti-Cry4Ba antibodies and HRP anti-rabbit IgG; apparent Kd; relative binding with Wt-R203Q set at 100%. A general note: An ELISA detects its analyte on a solid surface through an enzyme-linked reagent.

For “65 kDa Cry4Ba-R203Q full-length (trypsin-activated) toxin (natural protein)”, the Kd worked out at 80 nM. Consider “21 kDa isolated Cry4Ba-DIII fragment (domain or fragment)”, for which the Kd was determined as 110 nM.
